The source of these data is publication PMC7864060, “The cation diffusion facilitator protein MamM's cytoplasmic domain exhibits metal-type dependent binding modes and discriminates against Mn^2+” (The Journal of Biological Chemistry, 2020).

Data set [1] concerns the molecule itself. Briefly: crystal structure; MamM CTD 20 mg/ml co-crystallised with 3.375 mM CuSO4; 10 mM Tris pH 8.0, 150 mM NaCl, 5 mM β-mercaptoethanol; vapor diffusion, 293 K.
Data set [2] concerns the molecule itself. The experiment in a line: PELDOR (pulsed EPR) spectroscopy; four-pulse PELDOR at 50 K on MTSL-labelled C267S MamM CTD (250 or 500 µM in D2O, 30% glycerol-d8) incubated with 3- or 5-fold excess of Cd2+, Ni2+, Cu2+, Fe2+ or Mn2+; distance between the Cys-275 labels of the two protomers.

B1: MamM CTD (cytoplasmic C-terminal domain of MamM, residues 215-318) (domain or fragment, UniProt V6F235 215-318, looked up)
chain: EAVQNRIVEAAERVPGVRGVIHLRARYVGQDIWADMIIGVDPENTVEQAHEICEAVQAAVCGKIRRIESLHVSAEAREIGDTTKPSFSDQPLSFDEVMLSKVDN
notes: MamM, cation diffusion facilitator iron transporter of magnetotactic bacteria, UniProt Q6NE57, C-terminal domain, residues 215-318; Homodimer in all crystal forms; also called WT MamM CTD; MamM's cytoplasmic domain
As to B1, the binding result in data set [1] is listed as “binds”.

B2: spin-labeled C267S MamM CTD (domain or fragment, UniProt V6F235 215-318, looked up)
chain: EAVQNRIVEAAERVPGVRGVIHLRARYVGQDIWADMIIGVDPENTVEQAHEISEAVQAAVCGKIRRIESLHVSAEAREIGDTTKPSFSDQPLSFDEVMLSKVDN
modifications: MTSL spin label on Cys-275
notes: MamM, cation diffusion facilitator iron transporter of magnetotactic bacteria, UniProt Q6NE57, C-terminal domain, residues 215-318, with C267S; Only Cys-275 is left for labelling with MTSL; also called C267SSL; MamM CTD C267S
For the protein B2, the binding result in data set [2] was “binds”.
